The values that follow come from IntAct's records for PubMed 26859457.

Sequence of unc5b_rat Unc5b (O08722 whole entry): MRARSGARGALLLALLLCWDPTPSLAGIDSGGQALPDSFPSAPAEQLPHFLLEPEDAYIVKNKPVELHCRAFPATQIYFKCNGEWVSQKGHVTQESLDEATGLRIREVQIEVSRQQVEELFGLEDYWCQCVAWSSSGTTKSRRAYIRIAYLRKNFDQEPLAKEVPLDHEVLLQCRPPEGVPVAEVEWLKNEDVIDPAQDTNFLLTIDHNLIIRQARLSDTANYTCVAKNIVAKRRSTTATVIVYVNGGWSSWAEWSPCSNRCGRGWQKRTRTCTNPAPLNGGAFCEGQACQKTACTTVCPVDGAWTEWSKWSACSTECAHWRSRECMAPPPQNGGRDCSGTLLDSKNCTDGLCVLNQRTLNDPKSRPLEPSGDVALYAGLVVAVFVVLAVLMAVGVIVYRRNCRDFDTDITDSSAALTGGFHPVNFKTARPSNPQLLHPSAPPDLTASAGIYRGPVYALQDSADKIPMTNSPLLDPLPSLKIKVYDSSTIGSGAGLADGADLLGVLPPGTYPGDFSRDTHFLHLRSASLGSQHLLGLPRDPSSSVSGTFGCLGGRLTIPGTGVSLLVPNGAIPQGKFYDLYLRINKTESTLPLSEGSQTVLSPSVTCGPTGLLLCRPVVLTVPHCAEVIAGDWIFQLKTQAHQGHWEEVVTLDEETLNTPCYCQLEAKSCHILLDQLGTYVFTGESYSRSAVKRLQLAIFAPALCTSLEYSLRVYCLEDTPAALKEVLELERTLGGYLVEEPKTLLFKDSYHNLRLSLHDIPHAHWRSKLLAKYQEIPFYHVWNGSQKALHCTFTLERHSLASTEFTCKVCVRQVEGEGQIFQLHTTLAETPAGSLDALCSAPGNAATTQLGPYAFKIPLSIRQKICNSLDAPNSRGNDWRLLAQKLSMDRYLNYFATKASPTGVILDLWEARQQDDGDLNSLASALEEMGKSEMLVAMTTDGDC

One assay has as its target unc5b_rat Unc5b (UniProt O08722).
Turning to “Netrin-1 (Homo sapiens) (from UniProt O95631) Y357F”, the “effect of a mutation on the interaction” value is recorded as “with no effect”.

On to “Netrin-1 (Homo sapiens) (from UniProt O95631) R348A;R349A;R351A”, for which the “effect of a mutation on the interaction” value is on record as “decreasing interaction strength”.

Regarding “Netrin-1 (Homo sapiens) (from UniProt O95631) S360A”, the “effect of a mutation on the interaction” value was “decreasing interaction strength”.

Turning to “Netrin-1 (Homo sapiens) (from UniProt O95631) K358L”, the “effect of a mutation on the interaction” value was “decreasing interaction strength”.

With “Netrin-1 (Homo sapiens) (from UniProt O95631) R348W”, the “effect of a mutation on the interaction” value was “with no effect”.

With “Netrin-1 (Homo sapiens) (from UniProt O95631) N353A”, the “effect of a mutation on the interaction” value is “decreasing interaction strength”.

Another assay deals with Unc5b, Q8K1S3-1.
Sequence of Unc5b, Q8K1S3-1 (Q8K1S3 whole entry): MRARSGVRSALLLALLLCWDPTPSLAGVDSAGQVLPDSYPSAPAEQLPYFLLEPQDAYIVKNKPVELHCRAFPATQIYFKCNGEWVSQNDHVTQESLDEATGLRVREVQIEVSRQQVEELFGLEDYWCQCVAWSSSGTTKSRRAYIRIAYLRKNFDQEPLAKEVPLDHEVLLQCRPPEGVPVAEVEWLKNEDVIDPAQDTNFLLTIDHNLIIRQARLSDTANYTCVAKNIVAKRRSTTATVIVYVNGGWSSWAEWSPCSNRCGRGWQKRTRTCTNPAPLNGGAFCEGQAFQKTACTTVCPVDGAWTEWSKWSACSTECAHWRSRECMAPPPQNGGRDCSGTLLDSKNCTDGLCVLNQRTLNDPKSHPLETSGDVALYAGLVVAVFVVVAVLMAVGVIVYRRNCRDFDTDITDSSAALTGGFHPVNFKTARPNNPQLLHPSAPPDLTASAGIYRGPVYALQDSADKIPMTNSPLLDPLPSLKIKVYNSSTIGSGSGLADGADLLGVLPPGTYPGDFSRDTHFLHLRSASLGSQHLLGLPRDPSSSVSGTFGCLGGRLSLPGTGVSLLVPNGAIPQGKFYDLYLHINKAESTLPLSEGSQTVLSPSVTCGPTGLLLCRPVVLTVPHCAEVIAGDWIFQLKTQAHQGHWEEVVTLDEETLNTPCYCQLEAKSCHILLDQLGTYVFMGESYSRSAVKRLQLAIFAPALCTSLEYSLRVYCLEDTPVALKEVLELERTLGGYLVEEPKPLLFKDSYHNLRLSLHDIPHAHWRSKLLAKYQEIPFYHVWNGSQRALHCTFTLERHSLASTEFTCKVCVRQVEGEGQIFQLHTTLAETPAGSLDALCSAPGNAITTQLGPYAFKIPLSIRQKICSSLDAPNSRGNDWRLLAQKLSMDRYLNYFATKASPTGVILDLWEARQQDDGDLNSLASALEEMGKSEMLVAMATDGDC
Consider “Netrin-1 (Mus musculus) (from UniProt O09118) R348A;R349A”, for which the “effect of a mutation on the interaction” value was “disrupting interaction strength”.

With “Netrin-1 (Mus musculus) (from UniProt O09118) R351A;N353A”, the “effect of a mutation on the interaction” value was “decreasing interaction strength”.
